Results taken from the Human Domainome abundance scans (Beltran et al. 2025).
± gives the uncertainty stated by the source.

B1: Ankyrin-1, residues 1405 to 1484; numbered along this chain, P16157 (parent)
chain: MKMAVISEHLGLSWAELARELQFSVEDINRIRVENPNSLLEQSVALLNLWVIREGQNANMENLYTALQSIDRGEIVNMLE

Variants of: B1
Assay: abundance fitness (aPCA) (normalised: wild type 0, dead -1); higher = more abundant; growth selection in yeast, the domain comes from the species named
Settings: Homo sapiens

| Variant | abundance fitness |
| --- | --- |
| L49Y | -0.037 ± 0.069 |
| L49H | -0.239 ± 0.12 |
| K2R | -0.045 ± 0.067 |
| K2L | -0.258 ± 0.037 |
| K2P | -0.587 ± 0.15 |
| K2F | -0.22 ± 0.11 |
| K2S | -0.4 ± 0.087 |
| F23K | -0.786 ± 0.18 |
| Y64K | -0.473 ± 0.2 |
| Y64D | -0.797 ± 0.44 |
| Y64R | -0.407 ± 0.056 |
| Y64L | -0.172 ± 0.067 |
| L47T | -0.628 ± 0.15 |
| L47W | -0.673 ± 0.12 |
| L47Y | -0.997 ± 0.34 |
| N57M | -0.075 ± 0.13 |
| N57R | -0.191 ± 0.11 |
| N57W | -0.175 ± 0.08 |
| N57C | -0.168 ± 0.21 |
| V33I | -0.018 ± 0.13 |
| R32V | -0.041 ± 0.059 |
| N37G | -0.166 ± 0.093 |
| N37Y | -0.322 ± 0.2 |
| N37K | 0.023 ± 0.13 |

| Variant | abundance fitness |
| --- | --- |
| L21S | -0.645 ± 0.15 |
| T65D | 0.009 ± 0.065 |
| T65M | -0.15 ± 0.076 |
| I31T | -0.774 ± 0.3 |
| M60K | -0.534 ± 0.35 |
| M60P | -0.207 ± 0.18 |
| M60T | -0.286 ± 0.19 |
| N59P | -0.253 ± 0.12 |
| N59F | -0.388 ± 0.17 |
| N59G | -0.151 ± 0.058 |
| G11C | -0.737 ± 0.2 |
| G11S | -0.616 ± 0.13 |
| G11E | 0.195 ± 0.14 |
| E8A | -0.175 ± 0.064 |
| E8K | 0.075 ± 0.14 |
| V5H | -0.216 ± 0.1 |
| V5T | -0.266 ± 0.089 |
| V5R | -0.521 ± 0.062 |
| V5A | -0.231 ± 0.06 |
| V5L | 0.079 ± 0.052 |
| E41N | 0.162 ± 0.13 |
| E41H | -0.161 ± 0.14 |
| E41V | -0.467 ± 0.067 |
| E41I | -0.579 ± 0.48 |

| Variant | abundance fitness |
| --- | --- |
| L39G | -0.423 ± 0.15 |
| A4P | -0.612 ± 0.19 |
| A4D | 0.159 ± 0.12 |
| A4H | -0.622 ± 0.28 |
| V44P | -0.911 ± 0.25 |
| V44I | -0.217 ± 0.12 |
| V44M | 0.142 ± 0.084 |
| V44T | 0.161 ± 0.081 |
| D27P | -0.822 ± 0.23 |
| E80A | -0.083 ± 0.081 |
| E80I | -0.682 ± 0.26 |
| A58I | -0.008 ± 0.19 |
| S13C | -0.577 ± 0.12 |
| E34M | -0.265 ± 0.34 |
| W14T | -0.758 ± 0.14 |
| W14A | -0.799 ± 0.16 |
| V25R | -0.07 ± 0.046 |
| V25G | -0.119 ± 0.038 |
| V25W | -0.265 ± 0.069 |
| G73N | -0.33 ± 0.15 |
| G73Y | -0.339 ± 0.085 |
| A15C | -0.238 ± 0.13 |
| A15E | 0.04 ± 0.076 |
| V51Q | 0.176 ± 0.074 |

| Variant | abundance fitness |
| --- | --- |
| V51H | 0.026 ± 0.1 |
| L40E | -0.032 ± 0.099 |
| L67V | -0.771 ± 0.11 |
| L67P | -0.858 ± 0.26 |
| L67T | -0.965 ± 0.29 |
| M3E | -0.275 ± 0.093 |
| M3Q | -0.197 ± 0.099 |
| E74I | -0.105 ± 0.19 |
| I70D | -0.881 ± 0.26 |
| I70T | -0.651 ± 0.14 |
| I70R | -0.437 ± 0.078 |
| I70M | -0.651 ± 0.19 |
| S7M | -0.852 ± 0.4 |
| L63R | -0.95 ± 0.18 |
| L63W | -0.693 ± 0.22 |
| L63Q | -0.075 ± 0.23 |
| L63N | -0.806 ± 0.36 |
| L63M | -0.027 ± 0.087 |
| L63I | 0.037 ± 0.2 |
| L63E | -0.646 ± 0.24 |
| L17N | -0.776 ± 0.32 |
| L17D | -1.01 ± 0.27 |
| L17H | -0.671 ± 0.4 |
| L17Y | -0.462 ± 0.11 |

| Variant | abundance fitness |
| --- | --- |
| R72H | -0.15 ± 0.14 |
| R72I | -0.753 ± 0.22 |
| Q68R | -0.038 ± 0.05 |
| Q68M | -0.181 ± 0.094 |
| M78D | -0.013 ± 0.096 |
| M78K | 0.087 ± 0.11 |
| M78L | 0.001 ± 0.059 |
| P36I | -0.459 ± 0.21 |
| P36G | -0.298 ± 0.071 |
| Q56E | 0.055 ± 0.085 |
| Q56S | -0.097 ± 0.07 |
| A66W | -0.99 ± 0.32 |
| S69P | -0.467 ± 0.13 |
| S69F | -0.341 ± 0.11 |
| S69L | -0.161 ± 0.056 |
| R19V | -0.072 ± 0.057 |
| R19A | -0.047 ± 0.06 |
| W50T | -0.823 ± 0.16 |
| N35P | -0.866 ± 0.23 |
| R30V | -0.192 ± 0.055 |
| R30D | -0.122 ± 0.11 |
| R30F | -0.518 ± 0.18 |
| R30W | -0.328 ± 0.076 |
| E61R | -0.316 ± 0.16 |

| Variant | abundance fitness |
| --- | --- |
| S24V | -0.722 ± 0.097 |
| L10F | -0.706 ± 0.27 |
| I28E | -0.627 ± 0.11 |
| I28S | -0.797 ± 0.11 |
| I28R | -0.571 ± 0.071 |
| I28K | -0.686 ± 0.18 |
| V76H | -0.465 ± 0.19 |
| V76C | -0.051 ± 0.095 |
| S43R | -0.89 ± 0.14 |
| A45C | -0.259 ± 0.034 |
| A45E | -0.023 ± 0.074 |
| A45R | -0.147 ± 0.036 |
| A45W | -0.921 ± 0.17 |
| A45S | -0.03 ± 0.057 |
| E26Q | -0.119 ± 0.098 |
| E26K | -0.059 ± 0.073 |
| D71L | -0.811 ± 0.095 |
| N77R | 0.08 ± 0.065 |
| N77K | 0.03 ± 0.12 |
| N77Q | 0.148 ± 0.11 |
| N77W | 0.018 ± 0.1 |
| Q42I | -0.915 ± 0.27 |
| Q42W | -0.794 ± 0.17 |
| Q42G | -0.923 ± 0.12 |

| Variant | abundance fitness |
| --- | --- |
| L79E | -0.335 ± 0.11 |
| L79M | 0.039 ± 0.082 |
| L79G | -0.379 ± 0.059 |
| G55E | -0.266 ± 0.18 |
| G55M | -0.661 ± 0.46 |
| G55C | -0.389 ± 0.17 |
| A18V | -1.07 ± 0.15 |
| A18D | -0.96 ± 0.23 |
| N29V | -0.213 ± 0.054 |
| N29M | -0.075 ± 0.068 |
| N29F | -0.376 ± 0.14 |
| N29E | -0.05 ± 0.067 |
| N29G | -0.133 ± 0.049 |
| S38E | -0.514 ± 0.23 |
| S38C | -0.099 ± 0.087 |
| S38T | -0.291 ± 0.13 |
| S38D | -0.048 ± 0.2 |
| S38A | -0.258 ± 0.081 |
| R53P | -0.983 ± 0.21 |
| R53A | -0.555 ± 0.078 |
| E16K | -0.088 ± 0.086 |
| E16R | -0.085 ± 0.056 |
| E16A | -0.041 ± 0.059 |
